Laboratory results taken from IntAct's records for PubMed 19955405.

B1: Serine/threonine-protein kinase SRK2E (Arabidopsis thaliana (Mouse-ear cress)), Q940H6 (parent)
chain: MDRPAVSGPMDLPIMHDSDRYELVKDIGSGNFGVARLMRDKQSNELVAVKYIERGEKIDENVKREIINHRSLRHPNIVRFKEVILTPTHLAIVMEYASGGELFERICNAGRFSEDEARFFFQQLISGVSYCHAMQVCHRDLKLENTLLDGSPAPRLKICDFGYSKSSVLHSQPKSTVGTPAYIAPEVLLKKEYDGKVADVWSCGVTLYVMLVGAYPFEDPEEPKNFRKTIHRILNVQYAIPDYVHISPECRHLISRIFVADPAKRISIPEIRNHEWFLKNLPADLMNDNTMTTQFDESDQPGQSIEEIMQIIAEATVPPAGTQNLNHYLTGSLDIDDDMEEDLESDLDDLDIDSSGEIVYAM
partner: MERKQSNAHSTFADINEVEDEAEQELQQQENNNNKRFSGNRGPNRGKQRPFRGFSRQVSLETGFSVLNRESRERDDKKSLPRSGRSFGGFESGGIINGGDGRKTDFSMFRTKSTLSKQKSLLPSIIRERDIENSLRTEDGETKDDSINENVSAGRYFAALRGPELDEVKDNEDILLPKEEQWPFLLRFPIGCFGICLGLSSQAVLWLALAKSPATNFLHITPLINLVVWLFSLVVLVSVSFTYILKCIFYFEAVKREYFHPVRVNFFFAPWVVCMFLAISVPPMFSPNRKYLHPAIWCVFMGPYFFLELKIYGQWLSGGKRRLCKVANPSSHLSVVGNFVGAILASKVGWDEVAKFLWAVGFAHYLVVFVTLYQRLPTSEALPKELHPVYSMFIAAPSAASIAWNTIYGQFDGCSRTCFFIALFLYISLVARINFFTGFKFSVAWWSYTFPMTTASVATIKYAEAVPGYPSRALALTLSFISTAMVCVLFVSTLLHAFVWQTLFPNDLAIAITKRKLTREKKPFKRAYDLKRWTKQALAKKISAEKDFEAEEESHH

Variants of: B1
Settings: with slac1_arath SLAC1, Q9LD83

Variant	effect of a mutation on the interaction
MDRPAVSGPMDLPIMHDSDRYELVKDIGSGNFGVARLMRDKQSNELVAVKYIERGEKIDENVKREIINHRSLRHPNIVRFKEVILTPTHLAIVMEYASGGELFERICNAGRFSEDEARFFFQQLISGVSYCHAMQVCHRALKLENTLLDGSPAPRLKICDFGYSKSSVLHSQPKSTVGTPAYIAPEVLLKKEYDGKVADVWSCGVTLYVMLVGAYPFEDPEEPKNFRKTIHRILNVQYAIPDYVHISPECRHLISRIFVADPAKRISIPEIRNHEWFLKNLPADLMNDNTMTTQFDESDQPGQSIEEIMQIIAEATVPPAGTQNLNHYLTGSLDIDDDMEEDLESDLDDLDIDSSGEIVYAM [D140A]	disrupting interaction
